# Data: the supplement of paper PMC9112550, “Optimization of the antimicrobial peptide Bac7 by deep mutational scanning” (BMC Biology, 2022)
# Test system: Escherichia coli TOP10
# Assay: shrunken log2 fold change of peptide-encoding DNA abundance (4.5 h post-induction vs induction); higher = less antimicrobial activity (less host growth inhibition)
# Conditions: time post-induction: 4.5 h; library: site-saturation at positions 5, 18, 19, 20
# 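Further: peptides expressed intracellularly from a pBAD plasmid library in pooled LB shake-flask culture, induced with 0.3% L-arabinose, DNA abundance read by NGS, three biological replicates, DESeq2 with apeglm shrinkage.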
row,Sequence,shrunken log2 fold change
1,RRIRIRPPRLPRPRPRPREWPRP,0.0237
2,RRIRSRPPRLPRPRPRPLPRPRP,0.741
3,RRIRKRPPRLPRPRPRPEYWPRP,-0.0125
4,RRIRVRPPRLPRPRPRPRVSPRP,0.205
5,RRIRLRPPRLPRPRPRPPLTPRP,0.288
6,RRIRPRPPRLPRPRPRPLCDPRP,-0.312
7,RRIRFRPPRLPRPRPRPSRWPRP,0.29
8,RRIRSRPPRLPRPRPRPECVPRP,0.673
9,RRIRGRPPRLPRPRPRPTENPRP,0.682
10,RRIRSRPPRLPRPRPRPEQYPRP,-0.256
11,RRIRRRPPRLPRPRPRPIFWPRP,0.821
12,RRIRQRPPRLPRPRPRPNDHPRP,-0.884
13,RRIRERPPRLPRPRPRPSFRPRP,-0.431
14,RRIRWRPPRLPRPRPRPYCDPRP,-0.218
15,RRIRQRPPRLPRPRPRPSERPRP,-0.143
16,RRIRKRPPRLPRPRPRPHKLPRP,0.00078
17,RRIRERPPRLPRPRPRPGSFPRP,0.0492
18,RRIRWRPPRLPRPRPRPDTAPRP,-0.192
19,RRIRSRPPRLPRPRPRPSEQPRP,-0.0884
20,RRIRARPPRLPRPRPRPVHEPRP,0.00256
21,RRIRNRPPRLPRPRPRPPLDPRP,0.0724
22,RRIRQRPPRLPRPRPRPMVKPRP,0.0691
23,RRIRTRPPRLPRPRPRPCWFPRP,-0.21
24,RRIRIRPPRLPRPRPRPFGTPRP,-0.109
25,RRIRSRPPRLPRPRPRPDTVPRP,-0.323

row,Sequence,shrunken log2 fold change
1,RRIRQRPPRLPRPRPRPESWPRP,0.461
2,RRIRERPPRLPRPRPRPHVLPRP,-0.202
3,RRIRERPPRLPRPRPRPNSMPRP,-0.864
4,RRIRIRPPRLPRPRPRPLILPRP,-0.895
5,RRIRNRPPRLPRPRPRPNYDPRP,-0.222
6,RRIRYRPPRLPRPRPRPKNCPRP,-0.0167
7,RRIRNRPPRLPRPRPRPMPAPRP,-0.142
8,RRIRTRPPRLPRPRPRPNMAPRP,-0.155
9,RRIRDRPPRLPRPRPRPWLDPRP,0.0593
10,RRIRERPPRLPRPRPRPEELPRP,0.174
11,RRIRNRPPRLPRPRPRPDHDPRP,-0.224
12,RRIRNRPPRLPRPRPRPGYNPRP,-0.198
13,RRIRDRPPRLPRPRPRPLYGPRP,-0.105
14,RRIRIRPPRLPRPRPRPVTMPRP,-1.03
15,RRIRWRPPRLPRPRPRPEKMPRP,-0.0237
16,RRIRMRPPRLPRPRPRPALSPRP,0.539
17,RRIRHRPPRLPRPRPRPKTVPRP,-0.154
18,RRIRVRPPRLPRPRPRPCSWPRP,-0.109
19,RRIRYRPPRLPRPRPRPATFPRP,-0.681
20,RRIRWRPPRLPRPRPRPIYEPRP,-0.355
21,RRIRYRPPRLPRPRPRPPDAPRP,0.0465
22,RRIRCRPPRLPRPRPRPKHGPRP,-0.116
23,RRIRKRPPRLPRPRPRPIPSPRP,0.422
24,RRIRRRPPRLPRPRPRPCLIPRP,-0.38
25,RRIRHRPPRLPRPRPRPGGIPRP,-0.092

row,Sequence,shrunken log2 fold change
1,RRIRRRPPRLPRPRPRPPAYPRP,0.618
2,RRIRCRPPRLPRPRPRPAGHPRP,0.0641
3,RRIRRRPPRLPRPRPRPQNTPRP,-0.218
4,RRIRARPPRLPRPRPRPLYWPRP,-0.194
5,RRIRIRPPRLPRPRPRPFLIPRP,-0.606
6,RRIRSRPPRLPRPRPRPCKIPRP,-0.177
7,RRIRIRPPRLPRPRPRPTYRPRP,-0.0791
8,RRIRSRPPRLPRPRPRPWREPRP,0.0924
9,RRIRPRPPRLPRPRPRPIAEPRP,-0.0633
10,RRIRGRPPRLPRPRPRPWVGPRP,0.12
11,RRIRGRPPRLPRPRPRPQLYPRP,0.415
12,RRIRVRPPRLPRPRPRPRMQPRP,0.123
13,RRIRVRPPRLPRPRPRPHEWPRP,-0.276
14,RRIRDRPPRLPRPRPRPSWMPRP,-0.166
15,RRIRGRPPRLPRPRPRPQSDPRP,0.254
16,RRIRERPPRLPRPRPRPNPAPRP,0.0424
17,RRIRHRPPRLPRPRPRPADTPRP,-0.406
18,RRIRNRPPRLPRPRPRPMRSPRP,1.09
19,RRIRRRPPRLPRPRPRPTYRPRP,0.309
20,RRIRNRPPRLPRPRPRPCQSPRP,-0.212
21,RRIRHRPPRLPRPRPRPMCDPRP,-0.0945
22,RRIRARPPRLPRPRPRPYEKPRP,-0.201
23,RRIRLRPPRLPRPRPRPRDPPRP,0.968
24,RRIRRRPPRLPRPRPRPWCHPRP,-0.0754
25,RRIRHRPPRLPRPRPRPYHTPRP,-0.132

row,Sequence,shrunken log2 fold change
1,RRIRIRPPRLPRPRPRPHRLPRP,-0.122
2,RRIRPRPPRLPRPRPRPWESPRP,0.0303
3,RRIRKRPPRLPRPRPRPWVPPRP,0.481
4,RRIRGRPPRLPRPRPRPGCQPRP,1.17
5,RRIRDRPPRLPRPRPRPPDRPRP,0.468
6,RRIRHRPPRLPRPRPRPGTKPRP,-0.0254
7,RRIRMRPPRLPRPRPRPIGGPRP,0.0689
8,RRIRIRPPRLPRPRPRPNMSPRP,-0.783
9,RRIRFRPPRLPRPRPRPYYPPRP,-1.19
10,RRIRLRPPRLPRPRPRPTMAPRP,-0.283
11,RRIRHRPPRLPRPRPRPHMQPRP,-0.616
12,RRIRPRPPRLPRPRPRPNHKPRP,-0.385
13,RRIRPRPPRLPRPRPRPAWAPRP,0.45
14,RRIRPRPPRLPRPRPRPMWVPRP,-0.138
15,RRIRMRPPRLPRPRPRPFKNPRP,0.129
16,RRIRGRPPRLPRPRPRPFWIPRP,-0.432
17,RRIRYRPPRLPRPRPRPMQDPRP,-0.28
18,RRIRWRPPRLPRPRPRPTEYPRP,-0.0755
19,RRIRQRPPRLPRPRPRPAYIPRP,-0.00563
20,RRIRNRPPRLPRPRPRPSMVPRP,-0.508
21,RRIRFRPPRLPRPRPRPLPKPRP,0.55
22,RRIRYRPPRLPRPRPRPHKWPRP,-0.581
23,RRIRGRPPRLPRPRPRPVYVPRP,0.0272
24,RRIRGRPPRLPRPRPRPESTPRP,1.63
25,RRIRRRPPRLPRPRPRPAHYPRP,0.445

row,Sequence,shrunken log2 fold change
1,RRIRPRPPRLPRPRPRPGCDPRP,0.309
2,RRIRKRPPRLPRPRPRPCETPRP,-0.0599
3,RRIRKRPPRLPRPRPRPGFAPRP,0.718
4,RRIRKRPPRLPRPRPRPNAYPRP,-0.082
5,RRIRWRPPRLPRPRPRPHPCPRP,0.12
6,RRIRFRPPRLPRPRPRPRSHPRP,-0.181
7,RRIRARPPRLPRPRPRPCDAPRP,0.344
8,RRIRYRPPRLPRPRPRPIAPPRP,-0.0464
9,RRIRARPPRLPRPRPRPRIIPRP,0.093
10,RRIRNRPPRLPRPRPRPQELPRP,-0.14
11,RRIRGRPPRLPRPRPRPFLSPRP,0.162
12,RRIRERPPRLPRPRPRPHTPPRP,0.229
13,RRIRWRPPRLPRPRPRPGHHPRP,0.0195
14,RRIRPRPPRLPRPRPRPWIFPRP,-0.0541
15,RRIRARPPRLPRPRPRPFVRPRP,-0.0552
16,RRIRNRPPRLPRPRPRPIGRPRP,-0.0141
17,RRIRRRPPRLPRPRPRPPHLPRP,0.52
18,RRIRWRPPRLPRPRPRPEFTPRP,0.362
19,RRIRFRPPRLPRPRPRPETKPRP,-0.0125
20,RRIRCRPPRLPRPRPRPMVVPRP,-0.0292
21,RRIRWRPPRLPRPRPRPCTKPRP,0.311
22,RRIRNRPPRLPRPRPRPPQRPRP,0.457
23,RRIRWRPPRLPRPRPRPFYWPRP,-0.151
24,RRIRTRPPRLPRPRPRPMRVPRP,-0.036
25,RRIRLRPPRLPRPRPRPAWHPRP,0.183
